This data set is described as follows: soluble on expression in E. coli; label from the status in PepcDB or PDB records.
Consider “FYHDYTVTQDELLKDSSDALKKEFLKILDKAIKRLILMANGDTIVIPLSGGYDSRAIATMLKKNGYENVILYTYGKPDSTEVRVAREVAKNLEFEWIFVEQNEDIVDPDYPERDFFLEFYKYAFNHVSTIHLQDFFVFKHLHDNSVIPKNSIIVPGHSGDFLGGSHLRKLPIPKSKRDVFNTILIKHYIVNEHIKLSPYVVKKINEYLNSFSEHTLPYSLDDNWNMKERQAKFIVNSNRTYEFFGYRHAIPLWDLELVEFFRRVPLEYKTKEVIYSDALRESVFKDFGVVLSQKDVANTMALEFYHRIFHSMEIFRHIRYFAEKN”, for which the “soluble on expression in E. coli” value is “not soluble”.

Turning to “GMSNALATLASPADDIAFYEERLRAAMLTGDLKGLETLLADDLAFVDHTGCVKTKQTHLEPYRAGLLKLSRLDLSDAVVRAAGEDGRVVVVRAVTAGVYDGEAFTETLRFTRIWRRTQGPAGWKLVAGHCSVIL”, the “soluble on expression in E. coli” value is “soluble”.

“MLMSVFHNWLLEIACENYFVYIKRLSANDTGATGGHQVGLYIPSGIVEKLFPSINHTRELNPSVFLTAHVSSHDCPDSEARAIYYNSAHFGKTRNEKRITRWGRGSPLQDPENTGALTLLAFKLDEQGGDCKEVNIWVCASTDEEDVIETAIGEVIPGALISGPAGQILGGLSLQQAPVNHKYILPEDWHLRFPSGSEIIQYAASHYVKNSLDPDEQLLDRRRVEYDIFLLVEELHVLDIIRKGFGSVDEFIALANSVSNRRKSRAGKSLELHLEHLFIEHGLRHFATQAITEGNKKPDFLFPSAGAYHDTEFPVENLRMLAVKTTCKDRWRQILNEADKIHQVHLFTLQEGVSLAQYREMRESGVRLVVPSSLHKKYPEAVRAELMTLGAFIAELTGLYADIP”: the “soluble on expression in E. coli” value is listed as “soluble”.

As to “SEHPQPVTTQIEKSVNTALNKNYVFNKADYQYTLTNPSLGKIVGGILYPNATGSTTVKISDKSGKIIKEVPLSVTASTEDNFTKLLDKWNDVTIGNYVYDTNDSNMQKLNQKLDETNAKNIEAIKLDSNRTFLWKDLDNLNNSAQLTATYRRLEDLAKQITNPHSTIYKNEKAIRTVKESLAWLHQNFYNVNKDIEGSANWWDFEIGVPRSITGTLSLMNNYFTDAEIKTYTDPIEHFVPDAEYFRKTLVNPFKALGGNLVDMGRVKIIEGLLRKDNTIIEKTSHSLKNLFTTATKAEGFYADGSYIDHTNVAYTGAYGNVLIDGLTQLLPIIQETDYKISNQELDMVYKWINQSFLPLIVKGELMDMSRGRSISREAASSHAAAVEVLRGFLRLANMSNEERNLDLKSTIKTIITSNKFYNVFNNLKSYSDIANMNKLLNDSTVATKPLKSNLSTFNSMDRLAYYNAKKDFGFALSLHSKRTLNYEGMNDENTRGWYTGDGMFYIYNSDQSHYSNHFWPTVNPYKMAGTTEKDAKREDTTKEFMSKHSKDAKEKTGQVTGTSDFVGSVKLNDHFALAAMDFTNWDRTLTAQKGWVILNDKIVFLGSNIKNTNGIGNVSTTIDQRKDDSKTPYTTYVNGKTIDLKQASSQQFTDTKSVFLESKEPGRNIGYIFFKNSTIDIERKEQTGTWNSINRTSKNTSIVSNPFITISQKHDNKGDSYGYMMVPNIDRTSFDKLANSKEVELLENSSKQQVIYDKNSQTWAVIKHDNQESLINNQFKMNKAGLYLVQKVGNDYQNVYYQPQTMTKTDQLAI”, the “soluble on expression in E. coli” value is “soluble”.

Consider “MDNLQKYKPTDKMIDLISDNYSLLQVMSRFGLSLGFGDKTVKEVCELNGVDCRTFLIVVNFMSEGFSRMDGSSEDISIPALIDYLRQAHIYFLDFSLPAIRRKLIEAIDCSQDDVAFLILKFFDEYTREVRKHMDYEEKTVFKYVDALINGNAPRNYQISTFSKHHDQVGEKLTELKNIIIKYCPAKANENLLNAALFDIYACEAGLESHCKVEDYIFVPAILKLERRIRENEK”, for which the “soluble on expression in E. coli” value is “not soluble”.

With “MYLYIETLKQRLDAINQLRVDRALAAMGPAFQQVYSLLPTLLHYHHPLMPGYLDGNVPKGICLYTPDETQRHYLNELELYRGMSVQDPPKGELPITGVYTMGSTSSVGQSCSSDLDIWVCHQSWLDSEERQLLQRKCSLLESWAASLGVEVSFFLIDENRFRHNESGSLGGEDCGSTQHILLLDEFYRTAVRLAGKRILWNMVPCDEEEHYDDYVMTLYAQGVLTPNEWLDLGGLSSLSAEEYFGASLWQLYKSIDSPYKAVLKTLLLEAYSWEYPNPRLLAKDIKQRLHDGEIVSFGLDPYCMMLERVTEYLTAIEDFTRLDLVRRCFYLKVCEKLSRERACVGWRREVLSQLVKEWEWDDARLAMLDNRANWKIDQVREAHNELLDAMMQSYRNLIRFARRNNLSVSASPQDIGVLTRKLYAAFEALPGKVTLVNPQISPDLSEPNLTFIYVPPGRANRSGWYLYNRAPNIESIISHQPLEYNRYLNKLVAWAWFNGLLTSRTRLYIKGNGVVDLPKLQEMVADVSHHFPLRLPAPTPKALYSPCEIRHLAIIVNLEYDPTAAFRNQVVHFDFRKLDVFSFGENQNCLVGSVDLLYRNSWNEVRTLHFNGEQSMIEALKTILGKMHQDAAPPDSVEVFCYSQHLRGLIRTRVQQLVSECIELRLSSTRQETGRFKALRVSGQTWGLFFERLNVSVQKLENAIEFYGAISHNKLHGLSVQVETNHVKLPAVVDGFASEGIIQFFFEETQDENGFNIYILDESNRVEVYHHCEGSKEELVRDVSRFYSSSHDRFTYGSSFINFNLPQFYQIVKVDGREQVIPFRTKSIGN”, the “soluble on expression in E. coli” value is listed as “not soluble”.

For the sequence “MSEKTNPNLTLHDVTDKLEGDDEKYATALKTCGEVFAEVEAIFNDENYLSHAGWFKDESNNEGDVVYAKDTPHGRMVTISTELPMPVEDVMKETWNGMEALPEWNQNINFAARIAAPTSNFDIVTYGNNDVLVVSGREFVSARIWRKVGDGFILASRSVTVPSFKSKHKGKVRAHLHLAGARFRPNPENPETTLTDVVMLADLKGYLPKMIVNQVIGRIMIMDTVTNRRHFQNLKAKRTNN”, the “soluble on expression in E. coli” value is reported as “not soluble”.

As for “MGSDKIHHHHHHMSLPAQLRVLEVVQSLEKGGRTTRFTDTVAGLRAQKIFTVPLCISKPESWVSIPDLEVLHKTAGINWKLVFQIRKKIIKNNINLIHAHCEFSQLYASIAGVTCGIKTVATFHRSDLSKYQPNMVNKLIKLFASHFVAVSHDRLSLLTNNLKLPLNKCHVVHGGSVIEKKPTVTSINKARADLGIPLDQLMLLSIGHLGEIKGHQDTLVALSKFTKTMPALHLYIAGDGAAQEKQKLTELVNKLQINENVTFLGQINNAFSWLEACDIFIQPSVEEAFGLVFVEAGAKAKPVIATTVGGIKEIIVSKETGLLVLPSSPKAVEHALAILINSPPLRQQYGENGYKRITEHFSLTNMVNKYTDIFNQAVN”, the “soluble on expression in E. coli” value was “not soluble”.

Consider “MGSDKIHHHHHHMNAPANFDSLEVGFDVPALPGMDEADIQTPCLVLDLDALERNIKKMGDYARAHGMRHRVHGKMHKSVDVAKLQERLGGAIGVCCQKVSEAEVFARGGIKDVLVSNQVRDPAKIDRLARLPKLGARTIVCVDDPANVADLSAAAQKHDTEIECFVEIDCGAGRCGVTTTEDVVEIAQAIDAAPGLKFTGIQAYQGAMQHLDSYEARKEKLDVAIAQVRDAVEGLKAADLAPELVSGGGTGSYYFESNSGVYNELQCGSYAFMDADYGRILDQDGKRIDQGEWENAFFILTQVMSHAKADKAICDAGLKAQSVDSGLPFIFGRTDVEYVKCSDEHGVIADPDGVLKVGEKLKLVPGHCDPTANVHDWYVGVRNGKVETLWPVSARGKAY”, for which the “soluble on expression in E. coli” value is recorded as “not soluble”.

Turning to “AASDSAQLKSAREDIKELLKTKFCHPIMVRLGWHDAGTYNKNIEEWPQRGGANGSLRFDVELKHGANAGLVNALNLLKPIKDKYSGVTYADLFQLASATAIEEAGGPKIPMKYGRVDVTEPEQCPEEGRLPDAGPPSPAQHLRDVFYRMGLNDKEIVALSGAHTLGRSRPDRSGWGKPETKYTKDGPGAPGGQSWTAQWLKFDNSYFKDIKERRDEDLLVLPTDAALFEDPSFKVYAEKYAADPEAFFKDYAEAHAKLSNLGAKFGPAEGFSLEGSPAGAAPEKFVAAKYSTGKD”, the “soluble on expression in E. coli” value is recorded as “soluble”.

Regarding “MSLIREQVVRPLNAMVDASEKIKNRNFDVMLEETSSTEMGILSRTFNSMAGDLGKLYRGLEHAVNEKTNKLQMANQSLQVLYHSSQELTASRITASNFQTILRHWVALEGICALRLEIEEEAGKPLILQEGKPSGAVMLQTPLTLDGHHLGFLYWEAGSPEPDRALIDNFALILSRAIYYNQAQRQAEQLLLMEERATIARELHDSLAQSLSYLKIQLTLLKRSVTPLKSDGDLSKTENIIREIDKGLSDAYTQLRELLTTFRLTLTEGSFGQSLLGMLTQLSGQTDAKIELNNALSSIALDAHQQVHLVQLIREATINAIKHAKATKIKVNCQEQQGRVQVTIEDDGVGFDLQDHKINHYGMSIMQERAARLRGELKVESAPGKGCKVVLTYQQSEEKNKNEEGHHHHHH”, the “soluble on expression in E. coli” value is “soluble”.

Take “MSLLGAAESTLEFYDLSHPWGHGAPAWPYFEDVQIERLHGMAKSRVLTQKITTVMHSGTHIDAPAHVVEGTPFLDEIPLSAFFGTGVVVSIPKGKWGMVTAEDLQNATPDIRPGDIVVVNTGWHHKYADSAEYYAYSPGFDKKAGEWFAAKGVKAVGTDTQALDHPLATAIAPHSPAEAQGGLLPWAVREYEAQTGRKVLDDFPDWEPCHRAILSQGIYGFENVGGDLDKVTGKRVTFAAFPWRWVGGDGCIVRLVAIVDPTGSYRIETGKAVEGHHHHHH”: the “soluble on expression in E. coli” value is “soluble”.

With “MTYDALHVFDWIKARSGDNPVYIWGHSLGTGVATNLVRRLCERETPPDALILESPFTNIREEAKSHPFSVIYRYFPGFDWFFLDPITSSGIKFANDENMKHISCPLLILHAEDDPVVPFHLGRKLYNIAAPSRSFRDFKVQFIPFHSDLGYRHKYIYKSPELPRILREFLGKSEPERQH”, the “soluble on expression in E. coli” value was “not soluble”.

“MGSDKIHHHHHHMRRSKLTPTTPPMFKNLSVYRIQGDWHPAIAEAEASLQKFRFAECGATQAISAGWVEPRGEKHGPLVEAVGDQWMLTLCIQTKLLPAGVIKQHVDARIEQIKQREARRPGKKEVREIKEAVILELLPKAFSKKEHISVWIDRKNKLVAIDTASQSKCDTATSALVKTLDGLAIGLIQTQMSPGTCMSQWLMDGEAPDGFGVERECELKSSDESRSAVKYSRHVLDIDEVKQHLTHGKTPTQLAMTWTDRVSFTLTDAMALKKVTFLETPLMKKKAGGDDPFDANAAIVTGELSQLIPQLIEALGGELEFTGESGEGAREAKSEEREQETAEA”: the “soluble on expression in E. coli” value is listed as “not soluble”.

For the sequence “MGSDKIHHHHHHMRLRHIEIFHAIYTTGSITNAAKILHVSQPSVSKVLSHAEMQLGFDLFERVKGRLTPTDEAEMLFDEVDKIYQQMRSIKNTAENIKKSEYGQINIAGSPALGFDVIPSAIAKYHHKHHQVNFNVQTVHNDAVMQTLLEHKCDLAILFAPNVMPGVTSIELAQSELVIVYPKVSFPDCPKELTLNQLKEFEYIDIGDSGPLADLLWTRMMKDNISLEALIKVQTYFIAARLVAQGVGICVVDRFTAEGNLSDNTAIASFNPPLTFPVKALYLENKSLSKVSQEFLSYLTTEFSDDSK”, the “soluble on expression in E. coli” value is “not soluble”.

With “MAHHHHHHMAVGKNKRTSKGKKGGKKKVTDVFTKKEWYDLKAPKMFLVRNFGKTLVTKTIGKKLATDSLKGRIYEVNLADLNNDEDQAHKKIKLSCDHIINRDCYTDFCGLSITRDKLCSLIRKGYTLIEGHTDVKTLDNYHLRMFCIAFTKKRQNQTKSTCYAQTSQIKKIRKKMVDIMTAEASKVLLKDLVKKFIPESIGKEIEKQCKKIYPLQNVLIRKVKILKRPKLDISKLMELHTDPKEESGKNVNALPESKEATNILTAELKH”, the “soluble on expression in E. coli” value is given as “not soluble”.

These data come from the DeepSol protein solubility set.
